Results published in publication PMC10425845 (The EMBO Journal, 2023).
Like-named read-outs stand apart in the source and are kept apart here.

B3: Strep-REC114 (full-length mouse REC114 with a single N-terminal Strep-tag) (natural protein, UniProt Q9CWH4 1-259, looked up)
chain: MSEAGNVASGLGLPGEVSQWSLKRYGRFMLLDNVGSPGPSSEAAAAGSPTWKVFESSEESGSLVLTIVVSGHFFISQGQTLLEGFSLIGSKNWLKIVRRMDCLLFGTTIKNKSRMFRVQFSGESKEEALERCCGCVQTLAQYVTVQEPDSTTQELQQSQGPREAGESQGKDPLQQGPSLTLEQHVCMAAGAGVLQERTSVTHRAQSILAPEKLTLAYEGSSWGTEELGPFLRLCLMDQNFPAFVEEVEKELKKITGLRN

Tests used:
[1] = biological target: Strep-REC114-His-MEI4 1-127 complex (mouse) (UniProt Q9CWH4); assay: native MS
[2] = biological target: Strep-REC114-His-MEI4 1-127 complex (mouse) (UniProt Q9CWH4); assay: SEC-MALS
[3] = biological target: REC114 226-254-MEI4 1-43 minimal complex (mouse) (UniProt Q9CWH4); assay: AUC
[4] = biological target: REC114 226-254-MEI4 1-43 minimal complex (mouse) (UniProt Q9CWH4); assay: AUC; remark: listed apart in the source
[5] = biological target: Strep-REC114-His-MEI4 1-127 complex (mouse) (UniProt Q9CWH4); assay: ITC
SEC-MALS [6] = biological target: the molecule itself; assay: SEC-MALS
[7] = biological target: T1, Strep-REC114 1-159 (PH domain) (mouse, UniProt Q9CWH4 1-159); assay: ITC
T1 sequence (looked up): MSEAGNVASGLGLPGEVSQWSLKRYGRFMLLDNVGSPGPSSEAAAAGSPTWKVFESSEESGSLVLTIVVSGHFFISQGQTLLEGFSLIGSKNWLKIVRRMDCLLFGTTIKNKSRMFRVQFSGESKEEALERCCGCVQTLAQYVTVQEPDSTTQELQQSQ

MEI4 1-43 (untagged) = biological target: T2, MEI4 1-43 (untagged) (mouse, UniProt Q8BRM6 1-43); assay: AUC
T2 chain (looked up): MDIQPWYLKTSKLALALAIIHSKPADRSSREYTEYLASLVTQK

SEC-MALS [8] = biological target: the molecule itself; assay: SEC-MALS; remark: listed apart in the source
[9] = biological target: B3; assay: pull-down
His-Sumo-IHO1 1-281 = biological target: T3, His-Sumo-IHO1 1-281 (mouse, UniProt Q6PDM4 1-281); assay: SEC
T3 sequence (looked up): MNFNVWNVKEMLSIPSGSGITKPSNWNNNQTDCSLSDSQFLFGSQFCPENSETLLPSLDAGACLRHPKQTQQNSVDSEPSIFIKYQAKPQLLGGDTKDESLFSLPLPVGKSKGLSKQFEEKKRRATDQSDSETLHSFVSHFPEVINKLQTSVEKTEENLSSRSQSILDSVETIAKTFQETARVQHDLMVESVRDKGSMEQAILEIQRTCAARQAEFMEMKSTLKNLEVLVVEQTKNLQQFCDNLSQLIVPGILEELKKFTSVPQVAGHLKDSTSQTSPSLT

His-MBP-IHO1 1-281 = biological target: T4, His-MBP-IHO1 1-281 (mouse, UniProt Q6PDM4 1-281); assay: SEC
T4 sequence (looked up): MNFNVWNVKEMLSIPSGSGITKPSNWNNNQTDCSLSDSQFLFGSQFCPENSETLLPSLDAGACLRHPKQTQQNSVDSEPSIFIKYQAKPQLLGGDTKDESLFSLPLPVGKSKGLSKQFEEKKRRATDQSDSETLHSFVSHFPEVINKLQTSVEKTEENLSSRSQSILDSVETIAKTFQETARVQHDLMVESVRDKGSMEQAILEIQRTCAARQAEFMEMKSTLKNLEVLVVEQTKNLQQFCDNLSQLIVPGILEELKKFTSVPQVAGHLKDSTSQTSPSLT

SEC-MALS [10] = biological target: the molecule itself; assay: SEC-MALS; remark: listed apart in the source
His-MEI4 1-127 [11] = biological target: T5, His-MEI4 1-127 (mouse, UniProt Q8BRM6 1-127); assay: SEC-MALS
T5 sequence (looked up): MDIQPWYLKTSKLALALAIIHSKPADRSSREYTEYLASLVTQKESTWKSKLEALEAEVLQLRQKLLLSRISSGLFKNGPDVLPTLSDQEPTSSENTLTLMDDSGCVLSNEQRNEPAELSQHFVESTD

His-MEI4 1-127 [12] = biological target: T5, His-MEI4 1-127; assay: native MS
[13] = biological target: B3; assay: SEC

For “Strep-REC114-His-MEI4 1-127 complex (from UniProt Q9CWH4 1-259; Q8BRM6 1-127)”, the stoichiometry N [1] was 2 and the stoichiometry N [2] was 2.

“REC114 226-254-MEI4 1-43 minimal complex (from UniProt Q9CWH4 226-254; Q8BRM6 1-43)” gave a stoichiometry N [3] of 2 and a stoichiometry N [4] of 2.

B1: IHO1 1-281 (domain or fragment, mouse, UniProt Q6PDM4 1-281, looked up)
chain: MNFNVWNVKEMLSIPSGSGITKPSNWNNNQTDCSLSDSQFLFGSQFCPENSETLLPSLDAGACLRHPKQTQQNSVDSEPSIFIKYQAKPQLLGGDTKDESLFSLPLPVGKSKGLSKQFEEKKRRATDQSDSETLHSFVSHFPEVINKLQTSVEKTEENLSSRSQSILDSVETIAKTFQETARVQHDLMVESVRDKGSMEQAILEIQRTCAARQAEFMEMKSTLKNLEVLVVEQTKNLQQFCDNLSQLIVPGILEELKKFTSVPQVAGHLKDSTSQTSPSLT
In the case of B1, the Kd [5] is reported as 26.9 µM and the “stoichiometry N” value (SEC-MALS [6]) is reported as 4.

MNFNVWNVKEMLSIPSGSGITKP (domain or fragment, mouse, UniProt Q6PDM4 1-23, looked up) [His-MBP-IHO1 1-23] was tested, and the Kd [5] was 31.9 µM and the Kd [7] was 30.4 µM.

With ELGPFLRLCLMDQNFPAFVEEVEKELKKI (domain or fragment, mouse, UniProt Q9CWH4 226-254, looked up) [REC114 226-254 (untagged)] the “stoichiometry N” value (MEI4 1-43 (untagged)) was 2.

ELGPFLRLCLMDQNFPAFVEEVEKELKKI (domain or fragment, mouse, UniProt Q9CWH4 226-254, looked up) [His-MBP-REC114 226-254] was tested, and the “stoichiometry N” value (SEC-MALS [8]) was 2.

WGTEEDGPFLRLCLMDQNFPAFVEEVEKELKKITG (domain or fragment, mouse, UniProt Q9CWH4 222-256, looked up) [His-MBP-REC114 222-256 L227D]: binds (SEC-MALS [8]).

MDIQPWYLKTSKLALALAIIHSKPADRSSREYTEYLASLVTQK (domain or fragment, mouse, UniProt Q8BRM6 1-43, looked up) [His-MBP-MEI4 1-43]: binds [9].

B2: IHO1 125-281 (domain or fragment, mouse, UniProt Q6PDM4 125-281, looked up)
chain: ATDQSDSETLHSFVSHFPEVINKLQTSVEKTEENLSSRSQSILDSVETIAKTFQETARVQHDLMVESVRDKGSMEQAILEIQRTCAARQAEFMEMKSTLKNLEVLVVEQTKNLQQFCDNLSQLIVPGILEELKKFTSVPQVAGHLKDSTSQTSPSLT
With B2 the “stoichiometry N” value (SEC-MALS [6]) was 4.

GSMEQAILEIQRTCAARQAEFMEMKSTLKNLEVLVVEQTKNLQQFCDNLS (domain or fragment, mouse, UniProt Q6PDM4 196-245, looked up) [IHO1 196-245] was tested, and the “stoichiometry N” value (SEC-MALS [6]) was 4.

B3: binds (His-Sumo-IHO1 1-281); binds (His-MBP-IHO1 1-281); binds (SEC-MALS [10]). The “stoichiometry N” value (His-MEI4 1-127 [11]) was 2 and the “stoichiometry N” value (His-MEI4 1-127 [12]) was 1.

B4: IHO1 125-261 (domain or fragment, mouse, UniProt Q6PDM4 125-261, looked up)
chain: ATDQSDSETLHSFVSHFPEVINKLQTSVEKTEENLSSRSQSILDSVETIAKTFQETARVQHDLMVESVRDKGSMEQAILEIQRTCAARQAEFMEMKSTLKNLEVLVVEQTKNLQQFCDNLSQLIVPGILEELKKFTS
B4 was tested, and the “stoichiometry N” value (SEC-MALS [6]) was 4.

B5: MBP-IHO1 125-261 (MBP joined by a five-residue linker) (domain or fragment, mouse, UniProt Q6PDM4 125-261, looked up)
chain: ATDQSDSETLHSFVSHFPEVINKLQTSVEKTEENLSSRSQSILDSVETIAKTFQETARVQHDLMVESVRDKGSMEQAILEIQRTCAARQAEFMEMKSTLKNLEVLVVEQTKNLQQFCDNLSQLIVPGILEELKKFTS
For B5, the “stoichiometry N” value (SEC-MALS [6]) was 4.

B6: TOPOVIBL 452-579 (domain or fragment, mouse, UniProt J3QMY9 452-579, looked up)
chain: SCDTEQHLTPEKNISAQNTKDQHKNIAQEFPEESIGQAENKRPKRGSPNHGREESRVLGSARDRSPPKSATRDRELTEVSLTARGSQTQAAHGRAQAAEAASPAGGLEDLWLQEVSNLSEWLNPGHRS
B6: binds [13].
